From paper PMC3597662 come the findings set out here.

This series concerns the target T1, Cbp2Hb wild type (Hyperthermus butylicus, UniProt A2BLH2 1-103).
T1 sequence: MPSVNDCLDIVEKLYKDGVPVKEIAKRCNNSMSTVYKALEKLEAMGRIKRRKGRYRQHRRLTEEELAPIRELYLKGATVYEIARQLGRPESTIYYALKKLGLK
Nature of the series: NMR.

B1: CRISPR-1rHb 25 bp single repeat (dsDNA)
DNA 1: CTTGCAATTCTCTTTTGAGTTGTTC
DNA 2: GAACAACTCAAAAGAGAATTGCAAG
For the molecule B1, the binding result is reported as “binds”.
